Results: PMC10540216, “Activity Guided Azide-methyllysine Photo-trapping for Substrate Profiling of Lysine Demethylases” (Journal of the American Chemical Society, 2023)

System: KDM4A-I71AzF
Test: CASI: photo-crosslinking with HEK293T cell extracts, StrepTactin enrichment and LC-MS/MS proteomics;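 note: lysates from HEK293T cells pretreated with a KDM4 inhibitor to raise proteome methylation, affinity-purified after ±UV, gel-resolved, trypsin-digested, with exclusive unique peptides per protein averaged per condition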
Assay type: binding, human
Conditions: sheet "Final results but with 0.01"

B1: PRP16_HUMAN (protein, UniProt Q92620 2-1227, looked up)
Pre-mRNA-splicing factor …: GDTSEDASIHRLEGTDLDCQVGGLICKSKSAASEQHVFKAPAPRPSLLGLDLLASLKRREREEKDDGEDKKKSKVSSYKDWEESKDDQKDAEEEGGDQAGQNIRKDRHYRSARVETPSHPGGVSEEFWERSRQRERERREHGVYASSKEEKDWKKEKSRDRDYDRKRDRDERDRSRHSSRSERDGGSERSSRRNEPESPRHRPKDAATPSRSTWEEEDSGYGSSRRSQWESPSPTPSYRDSERSHRLSTRDRDRSVRGKYSDDTPLPTPSYKYNEWADDRRHLGSTPRLSRGRGRREEGEEGISFDTEEERQQWEDDQRQADRDWYMMDEGYDEFHNPLAYSSEDYVRRREQHLHKQKQKRISAQRRQINEDNERWETNRMLTSGVVHRLEVDEDFEEDNAAKVHLMVHNLVPPFLDGRIVFTKQPEPVIPVKDATSDLAIIARKGSQTVRKHREQKERKKAQHKHWELAGTKLGDIMGVKKEEEPDKAVTEDGKVDYRTEQKFADHMKRKSEASSEFAKKKSILEQRQYLPIFAVQQELLTIIRDNSIVIVVGETGSGKTTQLTQYLHEDGYTDYGMIGCTQPRRVAAMSVAKRVSEEMGGNLGEEVGYAIRFEDCTSENTLIKYMTDGILLRESLREADLDHYSAIIMDEAHERSLNTDVLFGLLREVVARRSDLKLIVTSATMDAEKFAAFFGNVPIFHIPGRTFPVDILFSKTPQEDYVEAAVKQSLQVHLSGAPGDILIFMPGQEDIEVTSDQIVEHLEELENAPALAVLPIYSQLPSDLQAKIFQKAPDGVRKCIVATNIAETSLTVDGIMFVIDSGYCKLKVFNPRIGMDALQIYPISQANANQRSGRAGRTGPGQCFRLYTQSAYKNELLTTTVPEIQRTNLANVVLLLKSLGVQDLLQFHFMDPPPEDNMLNSMYQLWILGALDNTGGLTSTGRLMVEFPLDPALSKMLIVSCDMGCSSEILLIVSMLSVPAIFYRPKGREEESDQIREKFAVPESDHLTYLNVYLQWKNNNYSTIWCNDHFIHAKAMRKVREVRAQLKDIMVQQRMSLASCGTDWDIVRKCICAAYFHQAAKLKGIGEYVNIRTGMPCHLHPTSSLFGMGYTPDYIVYHELVMTTKEYMQCVTAVDGEWLAELGPMFYSVKQAGKSRQENRRRAKEEASAMEEEMALAEEQLRARRQEQEKRSPLGSVRSTKIYTPGRKEQGEPMTPRRTPARFGL
Fold change (+UV/-UV): 0

B2: IPO5_HUMAN (protein, UniProt O00410 2-1097, looked up)
Importin-5: AAAAAEQQQFYLLLGNLLSPDNVVRKQAEETYENIPGQSKITFLLQAIRNTTAAEEARQMAAVLLRRLLSSAFDEVYPALPSDVQTAIKSELLMIIQMETQSSMRKKVCDIAAELARNLIDEDGNNQWPEGLKFLFDSVSSQNVGLREAALHIFWNFPGIFGNQQQHYLDVIKRMLVQCMQDQEHPSIRTLSARATAAFILANEHNVALFKHFADLLPGFLQAVNDSCYQNDDSVLKSLVEIADTVPKYLRPHLEATLQLSLKLCGDTSLNNMQRQLALEVIVTLSETAAAMLRKHTNIVAQTIPQMLAMMVDLEEDEDWANADELEDDDFDSNAVAGESALDRMACGLGGKLVLPMIKEHIMQMLQNPDWKYRHAGLMALSAIGEGCHQQMEGILNEIVNFVLLFLQDPHPRVRYAACNAVGQMATDFAPGFQKKFHEKVIAALLQTMEDQGNQRVQAHAAAALINFTEDCPKSLLIPYLDNLVKHLHSIMVLKLQELIQKGTKLVLEQVVTSIASVADTAEEKFVPYYDLFMPSLKHIVENAVQKELRLLRGKTIECISLIGLAVGKEKFMQDASDVMQLLLKTQTDFNDMEDDDPQISYMISAWARMCKILGKEFQQYLPVVMGPLMKTASIKPEVALLDTQDMENMSDDDGWEFVNLGDQQSFGIKTAGLEEKSTACQMLVCYAKELKEGFVEYTEQVVKLMVPLLKFYFHDGVRVAAAESMPLLLECARVRGPEYLTQMWHFMCDALIKAIGTEPDSDVLSEIMHSFAKCIEVMGDGCLNNEHFEELGGILKAKLEEHFKNQELRQVKRQDEDYDEQVEESLQDEDDNDVYILTKVSDILHSIFSSYKEKVLPWFEQLLPLIVNLICPHRPWPDRQWGLCIFDDVIEHCSPASFKYAEYFLRPMLQYVCDNSPEVRQAAAYGLGVMAQYGGDNYRPFCTEALPLLVRVIQSADSKTKENVNATENCISAVGKIMKFKPDCVNVEEVLPHWLSWLPLHEDKEEAVQTFNYLCDLIESNHPIVLGPNNTNLPKIFSIIAEGEMHEAIKHEDPCAKRLANVVRQVQTSGGLWTECIAQLSPEQQAAIQELLNSA
Fold change (+UV/-UV): 1

B3: SIN3A_HUMAN (protein, UniProt Q96ST3 1-1273, looked up)
Paired amphipathic helix …: MKRRLDDQESPVYAAQQRRIPGSTEAFPHQHRVLAPAPPVYEAVSETMQSATGIQYSVTPSYQVSAMPQSSGSHGPAIAAVHSSHHHPTAVQPHGGQVVQSHAHPAPPVAPVQGQQQFQRLKVEDALSYLDQVKLQFGSQPQVYNDFLDIMKEFKSQSIDTPGVISRVSQLFKGHPDLIMGFNTFLPPGYKIEVQTNDMVNVTTPGQVHQIPTHGIQPQPQPPPQHPSQPSAQSAPAPAQPAPQPPPAKVSKPSQLQAHTPASQQTPPLPPYASPRSPPVQPHTPVTISLGTAPSLQNNQPVEFNHAINYVNKIKNRFQGQPDIYKAFLEILHTYQKEQRNAKEAGGNYTPALTEQEVYAQVARLFKNQEDLLSEFGQFLPDANSSVLLSKTTAEKVDSVRNDHGGTVKKPQLNNKPQRPSQNGCQIRRHPTGTTPPVKKKPKLLNLKDSSMADASKHGGGTESLFFDKVRKALRSAEAYENFLRCLVIFNQEVISRAELVQLVSPFLGKFPELFNWFKNFLGYKESVHLETYPKERATEGIAMEIDYASCKRLGSSYRALPKSYQQPKCTGRTPLCKEVLNDTWVSFPSWSEDSTFVSSKKTQYEEHIYRCEDERFELDVVLETNLATIRVLEAIQKKLSRLSAEEQAKFRLDNTLGGTSEVIHRKALQRIYADKAADIIDGLRKNPSIAVPIVLKRLKMKEEEWREAQRGFNKVWREQNEKYYLKSLDHQGINFKQNDTKVLRSKSLLNEIESIYDERQEQATEENAGVPVGPHLSLAYEDKQILEDAAALIIHHVKRQTGIQKEDKYKIKQIMHHFIPDLLFAQRGDLSDVEEEEEEEMDVDEATGAVKKHNGVGGSPPKSKLLFSNTAAQKLRGMDEVYNLFYVNNNWYIFMRLHQILCLRLLRICSQAERQIEEENREREWEREVLGIKRDKSDSPAIQLRLKEPMDVDVEDYYPAFLDMVRSLLDGNIDSSQYEDSLREMFTIHAYIAFTMDKLIQSIVRQLQHIVSDEICVQVTDLYLAENNNGATGGQLNTQNSRSLLESTYQRKAEQLMSDENCFKLMFIQSQGQVQLTIELLDTEEENSDDPVEAERWSDYVERYMNSDTTSPELREHLAQKPVFLPRNLRRIRKCQRGREQQEKEGKEGNSKKTMENVDSLDKLECRFKLNSYKMVYVIKSEDYMYRRTALLRAHQSHERVSKRLHQRFQAWVDKWTKEHVPREMAAETSKWLMGEGLEGLVPCTTTCDTETLHFVSINKYRVKYGTVFKAP
Fold change (+UV/-UV): 1.333

B4: RRP44_HUMAN (protein, UniProt Q9Y2L1 1-958, looked up)
Exosome complex exonuclease …: MLKSKTFLKKTRAGGVMKIVREHYLRDDIGCGAPGCAACGGAHEGPALEPQPQDPASSVCPQPHYLLPDTNVLLHQIDVLEDPAIRNVIVLQTVLQEVRNRSAPVYKRIRDVTNNQEKHFYTFTNEHHRETYVEQEQGENANDRNDRAIRVAAKWYNEHLKKMSADNQLQVIFITNDRRNKEKAIEEGIPAFTCEEYVKSLTANPELIDRLACLSEEGNEIESGKIIFSEHLPLSKLQQGIKSGTYLQGTFRASRENYLEATVWIHGDNEENKEIILQGLKHLNRAVHEDIVAVELLPKSQWVAPSSVVLHDEGQNEEDVEKEEETERMLKTAVSEKMLKPTGRVVGIIKRNWRPYCGMLSKSDIKESRRHLFTPADKRIPRIRIETRQASTLEGRRIIVAIDGWPRNSRYPNGHFVRNLGDVGEKETETEVLLLEHDVPHQPFSQAVLSFLPKMPWSITEKDMKNREDLRHLCICSVDPPGCTDIDDALHCRELENGNLEVGVHIADVSHFIRPGNALDQESARRGTTVYLCEKRIDMVPELLSSNLCSLKCDVDRLAFSCIWEMNHNAEILKTKFTKSVINSKASLTYAEAQLRIDSANMNDDITTSLRGLNKLAKILKKRRIEKGALTLSSPEVRFHMDSETHDPIDLQTKELRETNSMVEEFMLLANISVAKKIHEEFSEHALLRKHPAPPPSNYEILVKAARSRNLEIKTDTAKSLAESLDQAESPTFPYLNTLLRILATRCMMQAVYFCSGMDNDFHHYGLASPIYTHFTSPIRRYADVIVHRLLAVAIGADCTYPELTDKHKLADICKNLNFRHKMAQYAQRASVAFHTQLFFKSKGIVSEEAYILFVRKNAIVVLIPKYGLEGTVFFEEKDKPNPQLIYDDEIPSLKIEDTVFHVFDKVKVKIMLDSSNLQHQKIRMSLVEPQIPGISIPTDTSNMDLNGPKKKKMKLGK
Fold change (+UV/-UV): 0.6

B5: PYC_HUMAN (protein, UniProt P11498 21-1178, looked up)
Pyruvate carboxylase, …: TAPAASPNVRRLEYKPIKKVMVANRGEIAIRVFRACTELGIRTVAIYSEQDTGQMHRQKADEAYLIGRGLAPVQAYLHIPDIIKVAKENNVDAVHPGYGFLSERADFAQACQDAGVRFIGPSPEVVRKMGDKVEARAIAIAAGVPVVPGTDAPITSLHEAHEFSNTYGFPIIFKAAYGGGGRGMRVVHSYEELEENYTRAYSEALAAFGNGALFVEKFIEKPRHIEVQILGDQYGNILHLYERDCSIQRRHQKVVEIAPAAHLDPQLRTRLTSDSVKLAKQVGYENAGTVEFLVDRHGKHYFIEVNSRLQVEHTVTEEITDVDLVHAQIHVAEGRSLPDLGLRQENIRINGCAIQCRVTTEDPARSFQPDTGRIEVFRSGEGMGIRLDNASAFQGAVISPHYDSLLVKVIAHGKDHPTAATKMSRALAEFRVRGVKTNIAFLQNVLNNQQFLAGTVDTQFIDENPELFQLRPAQNRAQKLLHYLGHVMVNGPTTPIPVKASPSPTDPVVPAVPIGPPPAGFRDILLREGPEGFARAVRNHPGLLLMDTTFRDAHQSLLATRVRTHDLKKIAPYVAHNFSKLFSMENWGGATFDVAMRFLYECPWRRLQELRELIPNIPFQMLLRGANAVGYTNYPDNVVFKFCEVAKENGMDVFRVFDSLNYLPNMLLGMEAAGSAGGVVEAAISYTGDVADPSRTKYSLQYYMGLAEELVRAGTHILCIKDMAGLLKPTACTMLVSSLRDRFPDLPLHIHTHDTSGAGVAAMLACAQAGADVVDVAADSMSGMTSQPSMGALVACTRGTPLDTEVPMERVFDYSEYWEGARGLYAAFDCTATMKSGNSDVYENEIPGGQYTNLHFQAHSMGLGSKFKEVKKAYVEANQMLGDLIKVTPSSKIVGDLAQFMVQNGLSRAEAEAQAEELSFPRSVVEFLQGYIGVPHGGFPEPFRSKVLKDLPRVEGRPGASLPPLDLQALEKELVDRHGEEVTPEDVLSAAMYPDVFAHFKDFTATFGPLDSLNTRLFLQGPKIAEEFEVELERGKTLHIKALAVSDLNRAGQRQVFFELNGQLRSILVKDTQAMKEMHFHPKALKDVKGQIGAPMPGKVIDIKVVAGAKVAKGQPLCVLSAMKMETVVTSPMEGTVRKVHVTKDMTLEGDDLILEIE
Fold change (+UV/-UV): 0.3333

B6: KRT83_HUMAN (protein, UniProt P78385 1-493, looked up)
Keratin, type II cuticular Hb3: MTCGFNSIGCGFRPGNFSCVSACGPRPSRCCITAAPYRGISCYRGLTGGFGSHSVCGGFRAGSCGRSFGYRSGGVCGPSPPCITTVSVNESLLTPLNLEIDPNAQCVKQEEKEQIKSLNSRFAAFIDKVRFLEQQNKLLETKLQFYQNRECCQSNLEPLFAGYIETLRREAECVEADSGRLASELNHVQEVLEGYKKKYEEEVALRATAENEFVALKKDVDCAYLRKSDLEANVEALIQEIDFLRRLYEEEIRILQSHISDTSVVVKLDNSRDLNMDCIVAEIKAQYDDIATRSRAEAESWYRSKCEEMKATVIRHGETLRRTKEEINELNRMIQRLTAEVENAKCQNSKLEAAVAQSEQQGEAALSDARCKLAELEGALQKAKQDMACLIREYQEVMNSKLGLDIEIATYRRLLEGEEQRLCEGVEAVNVCVSSSRGGVVCGDLCVSGSRPVTGSVCSAPCNGNLVVSTGLCKPCGQLNTTCGGGSCGQGRH
Fold change (+UV/-UV): 10
